Results reported in IntAct's records for PubMed 31515488.

B1: Nanos homolog 2 (Homo sapiens), P60321 (parent)
chain: MQLPPFDMWKDYFNLSQVVWALIASRGQRLETQEIEEPSPGPPLGQDQGLGAPGANGGLGTLCNFCKHNGESRHVYSSHQLKTPDGVVVCPILRHYVCPVCGATGDQAHTLKYCPLNGGQQSLYRRSGRNSAGRRVKR
B2: PDZ and LIM domain protein 5 (Homo sapiens), Q96HC4 (parent)
chain: MSNYSVSLVGPAPWGFRLQGGKDFNMPLTISSLKDGGKAAQANVRIGDVVLSIDGINAQGMTHLEAQNKIKGCTGSLNMTLQRASAAPKPEPVPVQKGEPKEVVKPVPITSPAVSKVTSTNNMAYNKAPRPFGSVSSPKVTSIPSPSSAFTPAHATTSSHASPSPVAAVTPPLFAASGLHANANLSADQSPSALSAGKTAVNVPRQPTVTSVCSETSQELAEGQRRGSQGDSKQQNGPPRKHIVERYTEFYHVPTHSDASKKRLIEDTEDWRPRTGTTQSRSFRILAQITGTEHLKESEADNTKKANNSQEPSPQLASSVASTRSMPESLDSPTSGRPGVTSLTAAAAFKPVGSTGVIKSPSWQRPNQGVPSTGRISNSATYSGSVAPANSALGQTQPSDQDTLVQRAEHIPAGKRTPMCAHCNQVIRGPFLVALGKSWHPEEFNCAHCKNTMAYIGFVEEKGALYCELCYEKFFAPECGRCQRKILGEVISALKQTWHVSCFVCVACGKPIRNNVFHLEDGEPYCETDYYALFGTICHGCEFPIEAGDMFLEALGYTWHDTCFVCSVCCESLEGQTFFSKKDKPLCKKHAHSVNF
B3: F-box/WD repeat-containing protein 1A (Homo sapiens), Q9Y297 (parent)
chain: MDPAEAVLQEKALKFMCSMPRSLWLGCSSLADSMPSLRCLYNPGTGALTAFQNSSEREDCNNGEPPRKIIPEKNSLRQTYNSCARLCLNQETVCLASTAMKTENCVAKTKLANGTSSMIVPKQRKLSASYEKEKELCVKYFEQWSESDQVEFVEHLISQMCHYQHGHINSYLKPMLQRDFITALPARGLDHIAENILSYLDAKSLCAAELVCKEWYRVTSDGMLWKKLIERMVRTDSLWRGLAERRGWGQYLFKNKPPDGNAPPNSFYRALYPKIIQDIETIESNWRCGRHSLQRIHCRSETSKGVYCLQYDDQKIVSGLRDNTIKIWDKNTLECKRILTGHTGSVLCLQYDERVIITGSSDSTVRVWDVNTGEMLNTLIHHCEAVLHLRFNNGMMVTCSKDRSIAVWDMASPTDITLRRVLVGHRAAVNVVDFDDKYIVSASGDRTIKVWNTSTCEFVRTLNGHKRGIACLQYRDRLVVSGSSDNTIRLWDIECGACLRVLEGHEELVRCIRFDNKRIVSGAYDGKIKVWDLVAALDPRAPAGTLCLRTLVEHSGRVFRLQFDEFQIVSSSHDDTILIWDFLNDPAAQAEPPRSPSRTYTYISR
partner: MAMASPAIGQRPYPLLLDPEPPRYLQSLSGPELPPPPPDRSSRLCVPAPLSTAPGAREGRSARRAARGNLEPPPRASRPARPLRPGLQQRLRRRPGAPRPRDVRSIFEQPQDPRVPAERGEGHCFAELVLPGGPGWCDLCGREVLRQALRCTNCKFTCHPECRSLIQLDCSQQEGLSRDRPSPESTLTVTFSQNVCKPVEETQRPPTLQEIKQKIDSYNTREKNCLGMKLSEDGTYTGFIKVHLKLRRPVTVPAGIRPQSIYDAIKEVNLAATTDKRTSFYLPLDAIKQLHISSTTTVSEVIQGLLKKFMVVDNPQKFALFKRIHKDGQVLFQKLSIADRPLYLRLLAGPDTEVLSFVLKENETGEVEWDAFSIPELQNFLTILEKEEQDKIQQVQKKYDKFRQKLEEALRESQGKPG
B4: Protein FAM167A (Homo sapiens), Q96KS9 (parent)
chain: MSVPQIHVEEVGAEEGAGAAAPPDDHLRSLKALTEKLRLETRRPSYLEWQARLEEHTWPFPRPAAEPQASLEEGERGGQEPLLPLREAGQHPPSARSASQGARPLSTGKLEGFQSIDEAIAWLRKELTEMRLQDQQLARQLMRLRGDINKLKIEHTCRLHRRMLNDATYELEERDELADLFCDSPLASSFSLSTPLKLIGVTKMNINSRRFSLC
partner: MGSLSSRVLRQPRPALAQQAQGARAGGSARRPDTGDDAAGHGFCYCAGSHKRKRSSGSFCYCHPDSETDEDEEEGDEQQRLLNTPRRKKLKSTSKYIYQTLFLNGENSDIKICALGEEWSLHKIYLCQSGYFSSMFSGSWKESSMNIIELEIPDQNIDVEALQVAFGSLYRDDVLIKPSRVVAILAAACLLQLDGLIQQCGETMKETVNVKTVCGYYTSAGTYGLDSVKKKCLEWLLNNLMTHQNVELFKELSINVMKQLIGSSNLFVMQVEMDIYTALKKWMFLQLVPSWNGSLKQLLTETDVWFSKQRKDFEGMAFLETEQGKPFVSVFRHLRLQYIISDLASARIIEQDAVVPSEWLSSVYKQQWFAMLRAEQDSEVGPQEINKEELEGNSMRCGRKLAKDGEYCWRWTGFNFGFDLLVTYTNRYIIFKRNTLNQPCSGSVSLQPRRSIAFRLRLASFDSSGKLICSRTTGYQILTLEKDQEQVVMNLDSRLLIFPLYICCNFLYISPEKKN
B5: Zinc finger and BTB domain-containing protein 43 (Homo sapiens), O43298 (parent)
chain: MEPGTNSFRVEFPDFSSTILQKLNQQRQQGQLCDVSIVVQGHIFRAHKAVLAASSPYFCDQVLLKNSRRIVLPDVMNPRVFENILLSSYTGRLVMPAPEIVSYLTAASFLQMWHVVDKCTEVLEGNPTVLCQKLNHGSDHQSPSSSSYNGLVESFELGSGGHTDFPKAQELRDGENEEESTKDELSSQLTEHEYLPSNSSTEHDRLSTEMASQDGEEGASDSAEFHYTRPMYSKPSIMAHKRWIHVKPERLEQACEGMDVHATYDEHQVTESINTVQTEHTVQPSGVEEDFHIGEKKVEAEFDEQADESNYDEQVDFYGSSMEEFSGERSDGNLIGHRQEAALAAGYSENIEMVTGIKEEASHLGFSATDKLYPCQCGKSFTHKSQRDRHMSMHLGLRPYGCGVCGKKFKMKHHLVGHMKIHTGIKPYECNICAKRFMWRDSFHRHVTSCTKSYEAAKAEQNTTEAN
B6: Protein phosphatase 1 regulatory inhibitor subunit 16B (Homo sapiens), Q96T49 (parent)
chain: MASHVDLLTELQLLEKVPTLERLRAAQKRRAQQLKKWAQYEQDLQHRKRKHERKRSTGGRRKKVSFEASVALLEASLRNDAEEVRYFLKNKVSPDLCNEDGLTALHQCCIDNFEEIVKLLLSHGANVNAKDNELWTPLHAAATCGHINLVKILVQYGADLLAVNSDGNMPYDLCEDEPTLDVIETCMAYQGITQEKINEMRVAPEQQMIADIHCMIAAGQDLDWIDAQGATLLHIAGANGYLRAAELLLDHGVRVDVKDWDGWEPLHAAAFWGQMQMAELLVSHGASLSARTSMDEMPIDLCEEEEFKVLLLELKHKHDVIMKSQLRHKSSLSRRTSSAGSRGKVVRRASLSDRTNLYRKEYEGEAILWQRSAAEDQRTSTYNGDIRETRTDQENKDPNPRLEKPVLLSEFPTKIPRGELDMPVENGLRAPVSAYQYALANGDVWKVHEVPDYSMAYGNPGVADATPPWSSYKEQSPQTLLELKRQRAAAKLLSHPFLSTHLGSSMARTGESSSEGKAPLIGGRTSPYSSNGTSVYYTVTSGDPPLLKFKAPIEEMEEKVHGCCRIS
B7: Low-density lipoprotein receptor class A domain-containing protein 1 (Homo sapiens), Q5T700 (parent)
chain: MNKVFPQGENGYTAAESKAHPGGEAGGGHLCCSRRGACLSASLLLLLATVAALIALVTILGLPSCTPGAQACITLTNRTGFLCHDQRSCIPASGVCDGVRTCTHGEDEDESLCRDVPQSLPHFLVAHCGDPASWIYSDQKCDGTNNCGDCSDELSPVTVCPPCGPGWWRCPSTFFKYCDCIPRHLCRDHVQHCSDWSDEYACPGP
partner: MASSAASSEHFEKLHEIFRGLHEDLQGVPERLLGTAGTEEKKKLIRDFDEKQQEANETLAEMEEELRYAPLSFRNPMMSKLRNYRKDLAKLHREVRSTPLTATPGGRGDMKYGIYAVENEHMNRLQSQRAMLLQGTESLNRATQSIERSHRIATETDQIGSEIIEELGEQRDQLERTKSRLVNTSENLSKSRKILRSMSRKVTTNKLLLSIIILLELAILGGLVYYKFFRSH

Variants of: B1
Conditions: with magac_human MAGEA12, P43365
magac_human MAGEA12, P43365, sequence (P43365 whole entry): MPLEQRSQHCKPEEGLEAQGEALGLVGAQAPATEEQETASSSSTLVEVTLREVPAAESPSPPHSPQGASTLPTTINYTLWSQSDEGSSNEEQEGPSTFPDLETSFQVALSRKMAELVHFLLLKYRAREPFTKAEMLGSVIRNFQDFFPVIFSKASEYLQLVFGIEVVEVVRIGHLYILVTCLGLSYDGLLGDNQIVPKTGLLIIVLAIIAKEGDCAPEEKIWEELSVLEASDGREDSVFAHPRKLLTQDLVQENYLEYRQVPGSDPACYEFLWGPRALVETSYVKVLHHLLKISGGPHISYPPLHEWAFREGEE

| effect of a mutation on the interaction | Variant |
| --- | --- |
| with no effect | F13L |
| with no effect | R73C |
| with no effect | R26Q |

Variants of: B1
Conditions: with ccdb1_human CCNDBP1, O95273
ccdb1_human CCNDBP1, O95273, sequence (O95273 whole entry): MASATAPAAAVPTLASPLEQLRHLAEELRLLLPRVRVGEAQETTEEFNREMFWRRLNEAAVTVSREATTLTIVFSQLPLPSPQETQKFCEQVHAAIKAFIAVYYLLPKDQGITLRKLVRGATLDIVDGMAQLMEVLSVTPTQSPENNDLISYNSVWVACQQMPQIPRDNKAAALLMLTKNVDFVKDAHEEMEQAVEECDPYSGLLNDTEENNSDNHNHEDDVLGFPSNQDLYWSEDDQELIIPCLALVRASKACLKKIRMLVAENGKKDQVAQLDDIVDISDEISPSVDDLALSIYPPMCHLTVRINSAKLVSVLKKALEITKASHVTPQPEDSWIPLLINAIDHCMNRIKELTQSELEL

| effect of a mutation on the interaction | Variant |
| --- | --- |
| with no effect | F13L |
| with no effect | R73C |
| with no effect | R26Q |

Variants of: B2
Conditions: with cc136_human CCDC136, Q96JN2
cc136_human CCDC136, Q96JN2, sequence (Q96JN2 whole entry): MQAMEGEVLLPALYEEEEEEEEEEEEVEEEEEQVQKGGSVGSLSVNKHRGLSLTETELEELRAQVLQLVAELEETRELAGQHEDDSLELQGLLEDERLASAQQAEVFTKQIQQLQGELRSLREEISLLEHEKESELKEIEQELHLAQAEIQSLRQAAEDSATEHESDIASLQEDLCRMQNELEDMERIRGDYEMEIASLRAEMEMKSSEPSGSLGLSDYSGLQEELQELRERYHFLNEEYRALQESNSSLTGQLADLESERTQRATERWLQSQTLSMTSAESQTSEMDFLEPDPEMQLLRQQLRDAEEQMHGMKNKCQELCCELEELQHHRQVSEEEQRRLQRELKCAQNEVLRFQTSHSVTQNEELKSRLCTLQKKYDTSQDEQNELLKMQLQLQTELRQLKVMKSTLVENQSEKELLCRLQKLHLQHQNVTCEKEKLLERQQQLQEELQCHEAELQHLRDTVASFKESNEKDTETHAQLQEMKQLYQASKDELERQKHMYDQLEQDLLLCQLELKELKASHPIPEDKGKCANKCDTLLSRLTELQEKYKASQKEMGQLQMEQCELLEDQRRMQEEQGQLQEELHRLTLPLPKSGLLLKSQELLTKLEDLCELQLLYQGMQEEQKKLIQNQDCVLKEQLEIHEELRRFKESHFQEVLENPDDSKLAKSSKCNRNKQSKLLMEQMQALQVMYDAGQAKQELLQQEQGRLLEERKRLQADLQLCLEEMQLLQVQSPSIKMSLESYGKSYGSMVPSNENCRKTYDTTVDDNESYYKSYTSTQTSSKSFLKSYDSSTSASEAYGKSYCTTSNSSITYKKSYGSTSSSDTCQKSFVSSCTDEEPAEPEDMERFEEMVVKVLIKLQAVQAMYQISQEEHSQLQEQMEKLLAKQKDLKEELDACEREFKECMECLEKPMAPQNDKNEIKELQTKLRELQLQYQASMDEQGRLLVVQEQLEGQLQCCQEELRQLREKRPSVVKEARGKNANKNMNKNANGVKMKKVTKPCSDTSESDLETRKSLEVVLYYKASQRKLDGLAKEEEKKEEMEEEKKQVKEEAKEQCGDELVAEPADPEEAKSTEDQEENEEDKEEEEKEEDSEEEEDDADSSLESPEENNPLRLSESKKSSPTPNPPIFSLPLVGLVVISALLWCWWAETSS

| effect of a mutation on the interaction | Variant |
| --- | --- |
| with no effect | S136F |
| with no effect | P388S |

Variants of: B2
Conditions: with coil_human COIL

| effect of a mutation on the interaction | Variant |
| --- | --- |
| with no effect | P388S |

Variants of: B3
Conditions: with rasf5_human RASSF5, Q8WWW0

| effect of a mutation on the interaction | Variant |
| --- | --- |
| with no effect | L8M |
| with no effect | P592H |
| with no effect | T601S |
| disrupting interaction strength | I439V |
| with no effect | R594H |
| disrupting interaction strength | T414A |

Variants of: B4
Conditions: with gmcl1_human GMCL1, Q96IK5

| effect of a mutation on the interaction | Variant |
| --- | --- |
| with no effect | S99T |

Variants of: B5
Conditions: with psmd3_human PSMD3, O43242
psmd3_human PSMD3, O43242, sequence (O43242 whole entry): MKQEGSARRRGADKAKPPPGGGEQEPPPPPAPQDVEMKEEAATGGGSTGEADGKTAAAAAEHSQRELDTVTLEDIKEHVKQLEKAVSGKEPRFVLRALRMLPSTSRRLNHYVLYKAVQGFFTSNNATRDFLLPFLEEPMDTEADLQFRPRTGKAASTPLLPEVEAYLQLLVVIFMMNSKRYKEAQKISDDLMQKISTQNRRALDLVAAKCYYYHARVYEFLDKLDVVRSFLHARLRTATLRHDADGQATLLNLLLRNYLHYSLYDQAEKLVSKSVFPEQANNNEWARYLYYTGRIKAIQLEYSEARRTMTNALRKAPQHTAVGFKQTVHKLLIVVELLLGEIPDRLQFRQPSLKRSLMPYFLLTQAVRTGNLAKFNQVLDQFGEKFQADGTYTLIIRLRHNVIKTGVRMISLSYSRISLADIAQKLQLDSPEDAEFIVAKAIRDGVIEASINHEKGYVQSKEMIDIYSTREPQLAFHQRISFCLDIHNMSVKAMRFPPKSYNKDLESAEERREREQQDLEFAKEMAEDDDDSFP

| effect of a mutation on the interaction | Variant |
| --- | --- |
| disrupting interaction strength | L151V |

Variants of: B5
Conditions: with traf2_human TRAF2, Q12933
traf2_human TRAF2, Q12933, sequence (Q12933 whole entry): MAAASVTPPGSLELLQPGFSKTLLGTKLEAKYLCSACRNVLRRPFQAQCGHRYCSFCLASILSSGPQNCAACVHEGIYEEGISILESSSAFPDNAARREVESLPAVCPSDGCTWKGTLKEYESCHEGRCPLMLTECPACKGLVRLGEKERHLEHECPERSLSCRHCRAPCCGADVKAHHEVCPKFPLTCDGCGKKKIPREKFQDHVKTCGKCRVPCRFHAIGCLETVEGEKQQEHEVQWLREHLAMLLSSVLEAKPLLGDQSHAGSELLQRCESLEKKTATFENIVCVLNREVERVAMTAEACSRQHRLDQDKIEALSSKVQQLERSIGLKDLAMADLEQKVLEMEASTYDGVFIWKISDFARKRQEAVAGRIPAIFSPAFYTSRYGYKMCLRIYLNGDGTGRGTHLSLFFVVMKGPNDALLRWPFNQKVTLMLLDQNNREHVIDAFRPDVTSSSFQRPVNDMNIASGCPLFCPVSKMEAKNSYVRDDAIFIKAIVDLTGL

| effect of a mutation on the interaction | Variant |
| --- | --- |
| disrupting interaction strength | L151V |

Variants of: B5
Conditions: with mo4l2_human MORF4L2, Q15014
mo4l2_human MORF4L2, Q15014, sequence (Q15014 whole entry): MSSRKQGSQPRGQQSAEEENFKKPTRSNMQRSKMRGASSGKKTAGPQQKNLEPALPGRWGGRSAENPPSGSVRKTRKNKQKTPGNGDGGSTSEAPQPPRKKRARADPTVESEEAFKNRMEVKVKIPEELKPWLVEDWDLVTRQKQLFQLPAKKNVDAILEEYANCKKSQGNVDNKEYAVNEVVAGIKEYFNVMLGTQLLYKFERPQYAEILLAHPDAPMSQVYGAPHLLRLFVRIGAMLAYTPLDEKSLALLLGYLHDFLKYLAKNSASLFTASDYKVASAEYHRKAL

| effect of a mutation on the interaction | Variant |
| --- | --- |
| disrupting interaction strength | L151V |

Variants of: B5
Conditions: with arrb1_human ARRB1, P49407
arrb1_human ARRB1, P49407, sequence (P49407 whole entry): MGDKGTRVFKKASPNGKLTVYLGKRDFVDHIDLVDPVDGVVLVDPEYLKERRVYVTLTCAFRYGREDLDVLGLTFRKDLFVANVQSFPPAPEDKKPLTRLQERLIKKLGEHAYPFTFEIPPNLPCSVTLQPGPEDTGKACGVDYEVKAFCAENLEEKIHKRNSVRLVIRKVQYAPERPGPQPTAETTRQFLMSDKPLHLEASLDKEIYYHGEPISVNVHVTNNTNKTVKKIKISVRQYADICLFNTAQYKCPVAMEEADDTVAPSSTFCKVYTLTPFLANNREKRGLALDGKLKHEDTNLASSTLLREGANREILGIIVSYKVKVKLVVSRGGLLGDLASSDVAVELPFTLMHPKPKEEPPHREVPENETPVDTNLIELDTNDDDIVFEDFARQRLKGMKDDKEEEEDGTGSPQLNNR

| effect of a mutation on the interaction | Variant |
| --- | --- |
| disrupting interaction strength | L151V |

Variants of: B6
Conditions: with crx_human CRX

| effect of a mutation on the interaction | Variant |
| --- | --- |
| with no effect | P519S |

Variants of: B6
Conditions: with ikzf3_human IKZF3, Q9UKT9
ikzf3_human IKZF3, Q9UKT9, sequence (Q9UKT9 whole entry): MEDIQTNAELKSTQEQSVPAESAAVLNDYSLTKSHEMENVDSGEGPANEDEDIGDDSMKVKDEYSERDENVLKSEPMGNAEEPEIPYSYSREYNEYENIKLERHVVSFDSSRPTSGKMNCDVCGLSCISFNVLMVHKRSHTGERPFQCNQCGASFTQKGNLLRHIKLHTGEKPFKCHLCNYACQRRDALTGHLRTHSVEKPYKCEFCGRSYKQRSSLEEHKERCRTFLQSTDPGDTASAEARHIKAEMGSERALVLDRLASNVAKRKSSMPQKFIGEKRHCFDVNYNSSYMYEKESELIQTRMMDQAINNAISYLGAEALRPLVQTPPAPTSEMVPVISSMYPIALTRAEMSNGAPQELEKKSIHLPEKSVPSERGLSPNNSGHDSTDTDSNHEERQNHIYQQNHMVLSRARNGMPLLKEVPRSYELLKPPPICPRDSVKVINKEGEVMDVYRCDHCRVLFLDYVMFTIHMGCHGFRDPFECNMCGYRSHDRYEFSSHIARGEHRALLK

| effect of a mutation on the interaction | Variant |
| --- | --- |
| with no effect | P519S |

Variants of: B6
Conditions: with sf3b4_human SF3B4, Q15427
sf3b4_human SF3B4, Q15427, sequence (Q15427 whole entry): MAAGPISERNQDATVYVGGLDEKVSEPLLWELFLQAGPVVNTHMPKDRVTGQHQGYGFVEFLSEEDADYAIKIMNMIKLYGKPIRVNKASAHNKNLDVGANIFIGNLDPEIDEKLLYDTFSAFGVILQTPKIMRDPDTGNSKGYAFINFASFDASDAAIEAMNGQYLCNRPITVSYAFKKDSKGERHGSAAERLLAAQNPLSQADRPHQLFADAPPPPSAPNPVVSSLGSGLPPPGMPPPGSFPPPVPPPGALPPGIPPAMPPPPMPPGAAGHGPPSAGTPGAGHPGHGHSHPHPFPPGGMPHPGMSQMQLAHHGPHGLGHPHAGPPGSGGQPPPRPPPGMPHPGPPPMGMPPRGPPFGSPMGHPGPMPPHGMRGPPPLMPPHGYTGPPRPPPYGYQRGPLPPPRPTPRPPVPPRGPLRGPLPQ

| effect of a mutation on the interaction | Variant |
| --- | --- |
| with no effect | P519S |

Variants of: B7
Conditions: with vti1b_human VTI1B

| effect of a mutation on the interaction | Variant |
| --- | --- |
| with no effect | E108K |
